Laboratory results as given in US20240150466A1 (DYNAMICURE BIOTECHNOLOGY, published 2024).
Substitutions are numbered along the chain they refer to. Like-named read-outs stand apart in the source and are kept apart here.

T1: human IGFBP7 recombinant protein (human, UniProt Q16270 27-282, biotinylated with EZ-LINK NHS-PEG4 biotin in the BLI assays (sites not given))
T1 construct: Soluble protein used for ELISA coating and, biotinylated, on streptavidin biosensors (Octet); also called hIGFBP7; biotinylated IGFBP7 protein
T1 sequence: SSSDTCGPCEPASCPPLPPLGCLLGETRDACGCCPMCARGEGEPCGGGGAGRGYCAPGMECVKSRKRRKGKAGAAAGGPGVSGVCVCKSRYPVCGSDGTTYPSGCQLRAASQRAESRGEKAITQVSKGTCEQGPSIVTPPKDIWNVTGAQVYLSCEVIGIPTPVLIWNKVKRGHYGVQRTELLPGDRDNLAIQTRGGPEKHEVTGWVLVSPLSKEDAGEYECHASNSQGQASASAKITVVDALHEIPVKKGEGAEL

T2: mouse IGFBP7 recombinant protein (mouse, UniProt Q61581 26-281, limits assumed, biotinylated with EZ-LINK NHS-PEG4 biotin in the BLI assays (sites not given))
T2 construct: Soluble protein in ELISA and BLI; also called mIGFBP7
T2 sequence (looked up): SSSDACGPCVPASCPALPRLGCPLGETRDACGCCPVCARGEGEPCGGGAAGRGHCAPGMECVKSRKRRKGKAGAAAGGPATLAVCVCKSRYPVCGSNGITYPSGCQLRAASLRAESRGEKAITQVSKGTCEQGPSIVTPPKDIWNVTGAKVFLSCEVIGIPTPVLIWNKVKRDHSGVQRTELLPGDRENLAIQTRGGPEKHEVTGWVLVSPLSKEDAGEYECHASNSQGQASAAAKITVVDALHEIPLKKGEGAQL

T3: mouse IGFBP7 recombinant protein (mouse, UniProt Q61581 26-281, biotinylated with EZ-LINK NHS-PEG4 biotin in the BLI assays (sites not given))
T3 chain: T2 sequence (looked up)

T4: human IGFBP7 recombinant protein (UniProt Q16270 27-282, biotinylated with EZ-LINK NHS-PEG4 biotin in the BLI assays (sites not given))
T4 chain: T1 sequence

T5: cynomolgus IGFBP7 recombinant protein (cynomolgus)
T5 chain: T1 sequence with S13A, E215D

T6: His-tagged human IGFBP7 recombinant protein (human, UniProt Q16270 27-282)
T6 construct: not shown: His tag
T6 sequence: T1 sequence

T7: human IGFBP7 displayed on HEK293T cells (human, UniProt Q16270 27-282)
T7 construct: domain: CD80 transmembrane domain; signal peptide stated as residues 1-26; also called hIGFBP7; hIGFBP7-HEK cells; not shown: linker; CD80 transmembrane domain
T7 sequence: T1 sequence

B1: A1-mIgG1 nanobody Fc-fusion (Fc fusion)
chain: VQLQESGGGLVQAGGSLRLSCAASGSLFAIDKWGWYRQVAGNERELVAWRYSPVSINYGDSVKGRFTVSGDSSRKRVYLQMNSLKPDDTAVYRCAAVISGAWYWGQGTQVTVSS
notes: VHH fused with mIgG1 Fc fragment, expressed in Expi293 cells; also called monospecific A1-mIgG1; not shown: mouse IgG1 Fc fragment (mIgG1 Fc)
B2: D4-mIgG2a nanobody Fc-fusion (Fc fusion)
chain: VQLQESGGGLVQTGGSLRLSCAASGRSFTFSSYAMGWFRHAPGKEREFLTAITWSGDYTYYTDSVKGRSTISRDNAKNTVYLQLNNLKPEDTAVYYCAAKFSQVSAFFATVSEYEYWGQGTQVTVSS
notes: VHH fused with mIgG2a Fc fragment, expressed in Expi293 cells; also called monospecific D4-mIgG2a; not shown: mouse IgG2a Fc fragment (mIgG2a Fc)
B3: A4-mIgG2a nanobody Fc-fusion (Fc fusion)
chain: VQLQESGGGLVQPGGSLRLSCAASGTFTINTYLWYRQPPGKQREFVAAITRGGSINYADSVKGRFTISRDNAKKTVYLQMNSLKPEDTAVYVCNIKAHPNPWGFDNDYWGQGTQVTVSS
B4: bispecific anti-IGFBP7 nanobody Fc-fusion construct A1D4-mIgG2a (bispecific antibody)
chain: VQLQESGGGLVQAGGSLRLSCAASGSLFAIDKWGWYRQVAGNERELVAWRYSPVSINYGDSVKGRFTVSGDSSRKRVYLQMNSLKPDDTAVYRCAAVISGAWYWGQGTQVTVSSVQLQESGGGLVQTGGSLRLSCAASGRSFTFSSYAMGWFRHAPGKEREFLTAITWSGDYTYYTDSVKGRSTISRDNAKNTVYLQLNNLKPEDTAVYYCAAKFSQVSAFFATVSEYEYWGQGTQVTVSS
B5: A11 mIgG2a (antibody, V domains shown)
VH: VQLQESEGGWSGGGSGSGDFDYEKMANANNGAMTDNADAGKQREFVAAITSGGSINYADSVKGRFTISRDNTKKTVYLQMNSLKPEDTAVYVCNIKAHPNPWGFDNDYWGQGTQVTVSS
B6: anti-IGFBP7 nanobody A03 (VHH)
VHH: B3 chain with P13A, T28S, R51S
notes: Llama nanobody expressed in E. coli as His6-tagged protein; also called A3; not shown: His6 tag
B7: anti-IGFBP7 nanobody A04 (VHH)
VHH: B3 chain
notes: Llama nanobody expressed in E. coli as His6-tagged protein; also called A4; A4 VHH; not shown: His6 tag
B8: anti-IGFBP7 nanobody A07 (VHH)
VHH: B5 VH with D21G, E23D, N29I, R69T, T72A, Q114P, V115A, V117A
notes: Llama nanobody expressed in E. coli as His6-tagged protein; also called A7; not shown: His6 tag
B9: anti-IGFBP7 nanobody A11 (VHH)
VHH: B5 VH
notes: Llama nanobody expressed in E. coli as His6-tagged protein; also called A11 VHH; not shown: His6 tag
B10: anti-IGFBP7 nanobody F12 (VHH)
VHH: VQLQESGGGLVQPGGSLRLSCAASGFTFSINTYLWYRQPPGKQREFVAAITSGGSINYADSVKGRFTISRDNAKKTVYLQMNSLKPEDTAVYVCNIKAHPNPWGFDNDYWGQGTQVTVSS
notes: Llama nanobody expressed in E. coli as His6-tagged protein; not shown: His6 tag

Legend:
[1] = biological target: T1, human IGFBP7 recombinant protein; assay: BLI (Octet QKe), biotinylated IGFBP7 on streptavidin biosensors (FIG. 9)
Experimental: (§1) The binding affinity of anti-IGFBP7 nanobody Fc-fusion constructs (e.g., VHH-Fc-fusion constructs) were determined with bio-layer interferometry (BLI) using Octet QKe (Fortebio). Human, mouse, and cynomolgus IGFBP7 were biotinylated using EZ-LINK NHS-PEG4 biotin (Thermo Fisher Scientific). Streptavidin biosensors (ForteBio) were used to load biotinylated IGFBP7 protein (300 seconds in 5 μg/mL). Baseline was stabilized for 60 seconds in 1× kinetics buffer (ForteBio) before anti-IGFBP7 Fc-fucion proteins (serial dilution) were allowed to associate for 300 seconds with captured hIGFBP7 or mIGFBP7. Then the sensors were dissociated in 1× kinetics buffer for 600 seconds. Data analysis was performed on ForteBio Data Analysis HT 11.1 software.

[2] = biological target: T2, mouse IGFBP7 recombinant protein; assay: BLI (Octet QKe), biotinylated IGFBP7 on streptavidin biosensors (FIG. 10)
Experimental: as §1

[3] = biological target: T3, mouse IGFBP7 recombinant protein; assay: BLI
[4] = biological target: T4, human IGFBP7 recombinant protein; assay: BLI
[5] = biological target: T3, mouse IGFBP7 recombinant protein; assay: BLI
[6] = biological target: T4, human IGFBP7 recombinant protein; assay: BLI
[7] = biological target: T5, cynomolgus IGFBP7 recombinant protein; assay: BLI
[8] = biological target: T3, mouse IGFBP7 recombinant protein; assay: BLI
[9] = biological target: T4, human IGFBP7 recombinant protein; assay: BLI
[10] = biological target: T6, His-tagged human IGFBP7 recombinant …; assay: flow cytometry blockade assay: nanobody 50 ug/mL pre-incubated with His-tagged human IGFBP7 1 ug/mL, then human CD93 CHO cells (FIG. 14)
Experimental: Anti-IGFBP7 nanobodies and nanobody-Fc fusions (50 μg/mL) generated in previous examples was incubated with His-tagged human IGFBP7 recombinant protein (1 μg/mL) for 30 minutes in 4° C. Human CD93 expressing CHO cells (1×10⁵ per well) were treated the mixture for 30 minutes at 4° C. Then the cells were washed with FACS buffer and incubated with anti-IGFBP7 monoclonal rabbit antibody (Sino Biological Inc, Catalog #13100-R003) at 1 μg/mL for 30 minutes in 4° C. After incubation, the cells were washed with FACS buffer and incubated with PE-conjugated anti-rabbit IgG antibody ([…]) for 30 minutes in 4° C. After washing with FACS buffer twice, the samples were analyzed and data acquired in NovoCyte Flow.

[11] = biological target: T7, human IGFBP7 displayed on HEK293T cells; assay: flow cytometry on human IGFBP7 displaying HEK293T cells, nanobody 10 ug/ml, APC anti-HIS detection
Experimental: Human IGFBP7 and mouse IGFBP7 displaying HEK293T cells were detached by incubation with TrypLE reagents (Thermos Fisher), which preserves the integrity of IGFBP7 on the cell surface. Then the cells were incubated with anti-IGFBP7 nanobodies at 10 μg/ml for 30 minutes in 4° C. After washing by FACS buffer, the cells were incubated with APC conjugated anti-HIS antibodies (Biolegend) for 30 minutes in 4° C. After washing by FACS buffer twice, the samples were acquired in NovoCyte Flow Cytometer and analyzed by NovoExpress software.

Row | Binder | Kd [3] [nM] | Kd [4] [nM] | Kd [5] [nM] | Kd [6] [nM] | Kd [7] [nM] | Kd [8] [nM] | Kd [9] [nM] | percent blocking of the CD93-IGFBP7 interaction [10] [%] | also measured
1 | B1 | 25.8 | 3.82 | 25.8 | 3.82 | 3.19 |  |  |  | binding result [1]: binds; binding result [2]: binds
2 | B2 | 10.2 | 1.22 | 10.2 | 1.22 | 1.84 | 12.1 | 1.16 |  | binding result [1]: binds; binding result [2]: binds
3 | B3 |  |  |  |  |  | 0.0078 | 1.2 |  | 
4 | B4 | 1.07 | 0.902 | 1.07 | 0.902 | 0.939 |  |  |  | 
5 | B5 |  |  |  |  |  | 0.0177 | 0.0129 |  | 
6 | B6 |  |  |  |  |  |  |  | ≥ 50 | 
7 | B7 |  |  |  |  |  |  |  | ≥ 50 | 
8 | B8 |  |  |  |  |  |  |  | ≥ 50 | 
9 | B9 |  |  |  |  |  |  |  | ≥ 50 | 
10 | B10 |  |  |  |  |  |  |  |  | binding result [11]: binds
